Measured values from the nanobody polyreactivity screen of Harvey et al. (2022).

Assay: yeast display, Sf9 membrane polyspecificity reagent, FACS + sequencing; frameworks hold sequencing errors
Summary of the method: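 Synthetic nanobody libraries on Saccharomyces cerevisiae BJ5465 were galactose-induced for 36–48 hours, stained 1 hour at 4 °C with 10% biotinylated, detergent-solubilized Sf9 membrane reagent and enriched on streptavidin microbeads. FACS then separated cells into low and high (top ~1%) gates by anti-HA (expression) and streptavidin (reagent binding) fluorescence. Genes were colony-PCR amplified, MiSeq 2 × 250 sequenced and CDR-length filtered. A clone's polyreactivity label is that of its gate of origin.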

| Sequence | polyreactivity (PSR sort gate) |
| --- | --- |
| QVQLVESGGGLVQAGGSLRLSWAASGSTFDGYAMGWYRQAPGKERELVAAITRSGGSTYYADSVKGRFTISRDNAKITVYRQINSLKPEDTEVYYSNKYGYKGCVGYDYWGKGTQVTVSS | high polyreactivity |
| QVQLVESGGGLVQAGGSLRLSWAASGSTFYAYAMGCYRQSPGNERELVATISWSGGSTYADSVKGRFTISRDNAKYTVYLQMNSMTPEDTAVYYCNGSGAFYPTQVHPGYTLWSYDDWGQGTQVTVSS | low polyreactivity |
| QVQLVESGGGLVQAGGSLRLSWAAYGRIVKYAMGWYREPPGKERELVAAISGSGGTTYYADSVKGRLTISRDNAKNTVEFHMKSLKPEDTAVYYCAASRPRPPSSRRMVYWGQGSQVTVSS | high polyreactivity |
| QVQLVESGGGLVQAGGSLRLSYAASGRTFYRYAMGWYRQAPGKERELVAVITSGSRTKYADSVKGRFTISRDNAKNTVYLQMNSLKPEDTAFYYCAARGLALEGKSSGEYWGQGTQVTVSS | high polyreactivity |
| QVQLVESGGGLVQAGGSLRLTCAASGFIFCSYAMRWYRQAPGKERELVAAISFRGGSTFYADSVKGRFTISRDNAKNTVYLQMNSLKPEDTAVYYCNKAAYSIHSGLSYYHWGQGTQVTVSS | low polyreactivity |
| QVQLVESGGGLVQAGGSLRLTCAASGFIFEEYAKGWYRPAPGKERELVAAISRRGGSTYYADSVKGRFTISRDNATNTVYLQMNSLKPEDTAVDYCATDRRYNYWGQGTQVTVSS | high polyreactivity |
| QVQLVESGGGLVQAGGSLRLTCAASGFIFNYNTMGWYRQAPGKERELVAGINWSGTRTYYADSVKGRFTISRDNAKNTDYLQMNSLKPEDTAVYYCNAYTQQYRSYGYWGQGTQVTVSS | high polyreactivity |
| QVQLVESGGGLVQAGGSLRLTCAASGFIFPWNAMAWFRQAPRKERELVAAISFSGGSTYYADSVKGRFTISRDNAKNTVYLQMNSLKPEDTAVYYCAKRTWDLRRTRHYYWGQGTQVTVSS | low polyreactivity |
| QVQLVESGGGLVQAGGSLRLTCAASGFIFSLNAMGWYRQAPGKERELVAAISRCGVRTYYADSVKGRFSISRDNAKNTVYLQMNSLKPEDTAVYYCATAGPYYYYSGPQYDYWGQGTHVTVSS | high polyreactivity |
| QVQLVESGGGLVQAGGSLRLTCAASGFIFTYNAMGWYRQAPGKERELVAAISWSGSRTNYADTVKGRFTISRDNAKHTVYLQMNSLKPEDTAVFYCAAKYKYRTYNYWGQGTQVTVSS | high polyreactivity |
| QVQLVESGGGLVQAGGSLRLTCAASGFIFTYPNAKGWNIQAPGKERELVAAISWRGGGTYYADSVKGRFTISRDNAKNTVYLQMNSLKPEDTAVYYCADYVPAPRRTYNYWGQGTQVTVSS | high polyreactivity |
| QVQLVESGGGLVQAGGSLRLTCAASGFIFVTDAMGWYRQAPGKERELVAAITNSGGTTYYADSVKGRFTISRDNAKNTVYLQMNSLKPEDPAVYYCNKQWYTATYRESYYWGQGTQVTVSS | low polyreactivity |
| QVQLVESGGGLVQAGGSLRLTCAASGFTFAGYAMGWYRQGPGKERELVAVITSSDSTYYADSVKGRFTISRDNAKNTVYLQMNSLKPEDTAVYYCNAADERSQGWVGYDHWGQCTQVTVSS | low polyreactivity |
| QVQLVESGGGLVQAGGSLRLTCAASGFTFDTYAMGWYRQAPGKEREFVATISRNSGSTYYADSVKGRFTIARDNAKNTVYLQMNSLKPEDTAVYYCNRRRYGRKSDRMNYWGQGTQVTVSS | high polyreactivity |
| QVQLVESGGGLVQAGGSLRLTCAASGFTFRKNVMGWYRQAPGKERELVAFISSSGGSTYYADSVKGRFTISRDNEKNTGYIPMNSLKPEETAVYYCNAGRYGSNLEYWGQATQVTVSS | low polyreactivity |
| QVQLVESGGGLVQAGGSLRLTCAASGFTFYGYAMGRYRQAPGKERELVAAISSSGTSTYSGDSVKGRFTISRDNAKNTVYLQMNSLKPEDTAVYYCAKDFYRRFYSWGQGTQVTLSS | high polyreactivity |
| QVQLVESGGGLVQAGGSLRLTCAASGFTINFYAMGGYRQAPGKERELVAAITASGGGSTYYADSVKGRFTISRDNAKNTVYLQMNSLKPEDTAVYYCNADYTGSFYTYDYWGQGTQVTVSS | low polyreactivity |
| QVQLVESGGGLVQAGGSLRLTCAASGFTVHNKVMGWYRQAPGKERELVATISKSGGSTYYADSVKGRFTISRDNAKNTVYLEMNSLKPVDTAVYYCARRYGDYGRYGYWGQGTQVTVSS | high polyreactivity |
| QVQLVESGGGLVQAGGSLRLTCAASGFTYTINGMGWYRQAPGKERELVAAINWRGGSTYYADSVKGRFTISRDNAKNTVYLQMNSLKPEDTAVYYCYAVAYIYSYAYPPYWGREHLNYWGQGTQVTVSS | low polyreactivity |
| QVQLVESGGGLVQAGGSLRLTCAASGGIFTDYTMGWYRQAPGKERELVSAITWTGGSTYYADSVKGRFTISRDNAKNTVYLQMNSLKPEDTAVYYCYVVKYVYIYSYWEYYFWGQGTQVTVSS | low polyreactivity |
| QVQLVESGGGLVQAGGSLRLTCAASGGTFGSYAMGWYRPAPGKERELVAVISSGGSTYYADSVKGRFTISRDNAKNTVYLQMNSLKPEDTAVYYCARRTRTTRGKNGYWGQGTKVTVSS | high polyreactivity |
| QVQLVESGGGLVQAGGSLRLTCAASGGTFYANAMGWYRQAPGTERELVAAITSGGSTNYADSVKGRFTISRDNAKNTVYLQMNSLKPEDTAVYYCNAAAQRRYWHSYFRRYDYWGQGTQVTVSS | low polyreactivity |

| Sequence | polyreactivity (PSR sort gate) |
| --- | --- |
| QVQLVESGGGLVQAGGSLRLTCAASGHIFFYYTMGWYRQAPGKERELVARISSDGDTYYADSVKGRFTISRDNAKNTVYLQMNSLKPEDTAVYYCAAAVLYWVGYGYWGQGTQVTVSS | low polyreactivity |
| QVQLVESGGGLVQAGGSLRLTCAASGIIFGENARGWYRQAPGKERELVDAINSVGSTYYADSVKGRFTISRDNAKNTVYLQMNSLKPEDTAVYYCAAESWFLRWYRYDYWGQGTQVTVSS | low polyreactivity |
| QVQLVESGGGLVQAGGSLRLTCAASGIIFGKYTMGWYRPAPGKERELVADISKRGGSTYYADSVKGRFTISRDHAKNTVYLQMNSLKPEDTAVYNCAAERISSYDYWGQGTQVTVSS | high polyreactivity |
| QVQLVESGGGLVQAGGSLRLTCAASGIIFYGYAMGCYRQAPGKERELVADISFSGGRTYYSDSVKGRFTISRDNAKNTVYLQMNRLKQEDTAVYYCAKRRFYRTSQYVKYDYWGQGTQVTVSS | low polyreactivity |
| QVQLVESGGGLVQAGGSLRLTCAASGITFKFYAMGWYRQAPGKESELVAAITSGGGSTYYADSVKGRFTISRDNAKNTVYLQMNILKPEDTAVYYCNTYSIAYYSPCYDYWGQGTQVNVSS | high polyreactivity |
| QVQLVESGGGLVQAGGSLRLTCAASGITFYGNAMGWYRQAPGKERELVANTYYADSVKGRFTISRDNAKNTVYLQMNSLIAEDTAVYYCATRNARYRSQPPGYDYWGQGTQVTVSS | low polyreactivity |
| QVQLVESGGGLVQAGGSLRLTCAASGLIFPRYAMGWYRQAPGKERELVAAISRRGGSTRYADSVKGRFTISRDNAKNTVYLQMNSLKPEDTAVYYCAAPDFPKYYPTAYLQADEYWGQGTQVTVSS | high polyreactivity |
| QVQLVESGGGLVQAGGSLRLTCAASGLIFVAYAMGWYRQAPGKERELVAAISWSGGDTYYADSVKGRFTISRDNAKNTVYLQMNSLKPEDTAVYYCAADYYPYGYDSWGQGTQVTVSS | low polyreactivity |
| QVQLVESGGGLVQAGGSLRLTCAASGLILVPNTMGWYRQAPGTERELVAAISYSGGGTYYADSVKGRFTISRDNAKNTVYLQMNSLKPEDTAVYYCAAYVKRESAPYGYWGQGTQVTVSS | low polyreactivity |
| QVQLVESGGGLVQAGGSLRLTCAASGLTFERYAMGWYRQAPGKETELVAAISIRGGSTYYADSVKGRFTISRYNAKNTVYLQMNSLKPEVTAVYYCSADGRGREYDYWGQGTQVTVSS | low polyreactivity |
| QVQLVESGGGLVQAGGSLRLTCAASGLTFYSNTMGWYIQAPGKERELVAAISWTGTSTYYADSVKVRFTISRDNAKNTVFLQMNSLKAEDTAVYYWNALGYARSYDSWGQGTQVTVSS | high polyreactivity |
| QVQLVESGGGLVQAGGSLRLTCAASGNIFGIYTMGWYRQAPGKEREFFAVISLSGTSTYYADSVKGRFTISRDNAKNTVYLQMKSLKPEDTAVYYCNARTPHNKGRRRAYDYWGQATQVTVSS | high polyreactivity |
| QVQLVESGGGLVQAGGSLRLTCAASGNTFFFNTMGWYRQAPGKERELVAVISSSGGTYYADSVKGRFTISRDNAKNTVYLQMNSLKQEDTAVYYCNADWHTHGYPTGKTGFKYYYWGQGTQVTVSS | low polyreactivity |
| QVQLVESGGGLVQAGGSLRLTCAASGNTFVGNAMGWYRQAPGKERELVAAISRRGGSTYYADSVKGRFTISRDYAKNTVYLQMNSLKPEDTAEYYCAVGWAGRYDYWGQGTQVTVSS | low polyreactivity |
| QVQLVESGGGLVQAGGSLRLTCAASGRIAWYRQAPGKERELVAAITSGDRTNYADSVKRRFTISRDNAKNTVYFQMNSLKPEDTAVYYCATEPSWYHGFIDPRGYWGQGTQVTVSS | low polyreactivity |
| QVQLVESGGGLVQAGGSLRLTCAASGRICSNYAMGWYRPARGKERELLAAITVIGGRTYYADSVKGRFTISRDNPKNTVYLHMNSPKPEDTAVYYCAATPRRPWFYGSDYWGQGTQVTVSS | high polyreactivity |
| QVQLVESGGGLVQAGGSLRLTCAASGRIFDGYAMGWYRQPPRKERELVAAISSRGGRTYYADSVKGRFTISRDNAKNTVYLQMNSLKPEDTAVYYCAADDPYGEGDYWGQGTQVTVSS | low polyreactivity |
| QVQLVESGGGLVQAGGSLRLTCAASGRIFGPYVLGWYRQAPGKERELVAAISTSGTSTYYADSVKGRFTISRDNAKNTVYLQMNSLKPEDTAVYYCAKRSGARHRLMDYWGQGTQVTVSS | low polyreactivity |
| QVQLVESGGGLVQAGGSLRLTCAASGRIFGSYAMGWYRQAPGKERELVAAITRRGGSTYYADSVKGRFTISRDNAKNTVYLQMNSLKPEDTAVYYCAPERTSAYDYWGQGTQVTVSS | high polyreactivity |
| QVQLVESGGGLVQAGGSLRLTCAASGRIFLINAMGWYRPAPGKERDLVATISRSGASTDYADSVKGRFTISRDNAKYIVYLQMKSMKPEDTAVYYCNAKVYKRRVVPYDYWGQGSQVTVSS | high polyreactivity |
| QVQLVESGGGLVQAGGSLRLTCAASGRIFNTYAMGWYRQAPGKERELVAAITRSAGRTYYADSVKGRFTISRDNAKNTVYLQMNSLKPEDTAVYYCNAEGSSVLTGYCGYPPYWDTYDYWGQGTQVTLSS | low polyreactivity |
